According to the DeepSol protein solubility set:

Assay: soluble on expression in E. coli; label from the status in PepcDB or PDB records

Soluble on expression in E. coli, soluble:
MSQQKSDFADDADIDESLDELASEETIEETVENLEANGFEVIVVNSADDALAELQSLIPAEASVMNGHSTTLEEIGFDEYLSDGDHGWESLPEEIWSIDDDAKRQAARRESQTADYFLGGINGISQTGELVAADRSGSRIGAYPFAASNVVIVSGVNKIVPTLEDALDRLETVAYPLENERAKEAYGVDSAIAKQLILRQELEEGRTTVVLIREHLGYLEHHHHHH
MSLQEVITLKVIGPWSGAELDAFMEVLKAFEKQHPNIKIEYKTYRAEDLSTILPLQFESHDTPADVIFMWGWFIAEMGKKGHLMELNNIINPEEYVPGILDSVTVDGKIYGAPFTAAAKPGFWYRKSFFEKHNLKPPKTWDDFVALLEEIKKIPGIKAPIVSGDSVGWPLSDVTEHFILTFGGKDLQLKLIKGEVKWEDPQVRKIFEEKLVPLLKAGYFSDPIEWTSAVDLWWKGEYALYFMGTWITGMVDDPNDLGLIPLPGVKAMVIAPDYLMVPKYTSHPKEALELAKFLATEGQRIHVGTKSGKLATWKKVSIDDYWAPMRDVAKIVANVESAPDLDDSVGGEWQKVFWDQLKLLWVQPDRLDEVLKTLDEKFPKEGHHHHHH
SPLPVALQTRLAKRGILKHLEPEPEEEIIAEDYDDDPVDYEATRLEGLPPSWYKVFDPSCGLPYYWNADTDLVSWLSPHDPNSVVTKSAKKLRSSNADAEEKLDRSHDKSDRGHDKSDRSHEKLDRGHDKSDRGHDKSDRDRERGYDKVDRERERDRERDRDRGYDKADREEGKERRHHRREELAPYPKSKKAVSRKDEELDPMDPSSYSDAPRGTWSTGLPKRNEAKTGADTTAAGPLFQQRPYPSPGAVLRANAEASRTKQQD
MNQTKLNQRLKQQQLFDIYGELLTKRQACYFNEYINLDLSMQEIADKYQVKKSSIHQHIKTCNLIFNRFEAKLQLFKKQQLRLKLYEKITDPQLREQLIKLR
MSLKIIPGATGYFNKTLNSNQFDNEDAIKGKVNSIYGKSIDYSTMRHRDIIIAKIDLFIQRITHNLWTAREKNVTLIKQINDLKMCVNEYIGDCTDEELNDREFIASVVDRAIFHFAINSICNPEDNKDATLIERCTFDVETKNGLPSTVQLFYEESKDNEPLANIHLQAIGSGFLTFVNACQEHDDNSLKLFASLLISLSYSSVYSDFAGRVNINEYNDNYLKAQFEELSQRDMKKYLGEMKRLADGGEMNFDGYLDKMSHLVNEGTLAPDILSKMRDAAPKLIDFAKSFDPNSKEKIKIYTGTSKLIYDLFGVKSEKEGHHHHHH
MAVPATIPLTITNNSGRAEQIHIYNLGTELSSGRQGWADASGAFHPWPAGGNPPTPAPDASIPGPAPGRSTTIQIPKFSGRIYFSYGRKMEFRLTTGGLVQPAVQNPTDPNRDILFNWSEYTLNDSGLWINSTQVDMFSAPYTVGVRRGDGTTLSTGKLRPGGYNGVFNALRGQSGGWANLIQTRSDGTVLRALSPLYGVETGALPASVMDDYINRVWNKYTGTDLIVTPFADRPDVRYTGRVSGGVLRFTDGSGAVVTTFQKPDASSVFGCHRLLDAPNDQVRGPISRTLCAGFNRTTLLANPHQPDRSAAGFYQEPVTNHYARIIHAHMADGKAYGFAFDDVGHHESLVHDGDPRGASLTLDPFD
MLVEGSELQSGAQQPRTEAPQHGELQYLRQVEHIMRCGFKKEDRTGTGTLSVFGMQARYSLRDEFPLLTTKRVFWKGVLEELLWFIKGSTNAKELSSKGVRIWDANGSRDFLDSLGFSARQEGDLGPVYGFQWRHFGADYKDMDSDYSGQGVDQLQKVIDTIKTNPDDRRIIMCAWNPKDLPLMALPPCHALCQFYVVNGELSCQLYQRSGDMGLGVPFNIASYALLTYMIAHITGLQPGDFVHTLGDAHIYLNHIEPLKIQLQREPRPFPKLRILRKVETIDDFKVEDFQIEGYNPHPTIKMEMAV
MEISGEEDKEEAVTLPKEVSKISISDGNKFVYQILNGPNEQCFENFRMDKPVFYKLCDLLQTRGLLRHTNRIKIEAQLAIFLFIIGHNLRTRAVQELFCYSGETISRHFNNVLNAVIAISKDFFQPNSNSDTLENDDPYFKDCVGVVDSFHIPVMVGVDEQGPFRNGNGLLTQNVLAASSFDLRFNYVLAGWEGSASDQQVLNAALTRRNKLQVPQGKYYIVDNKYPNLPGFIAPYHGVSTNSREEAKEMFNERHKLLHRAIHRTFGALKERFPILLSAPPYPLQTQVKLVIAACALHNYVRLEKPDDLVFRMFEEETLAEAGEDREVALEEEQVEIVGQEHGFRPEEVEDSLRLRDEIASELWNHYVQNMSTF
MEIGIIGTGNIGGTLARKLIAAGHQVRVANSKGIHGVQSFADEIGATAVDVYGAVKGADAIILSIPLPALASLPNGFFDDLPETVPLIDTSNYYPGLRDPLIPEIDDGMTESVWVSQQLSHPVIKAFNNILAWSLAELGTPKGSASRLAIAVAGDNATLKQIVMNLVDDTGFDAIDAGSLEESWRQQPSTPAYCCDYDAETMKKGLTAAVRGEAASKRDRLPELFGKLGANPTHEDIVAMNRSLNPLEHHHHHH

Soluble on expression in E. coli, not soluble:
MPQTDKQVCIPPELPELLKQFTKDAIRTQPPDLIQWAAEYFGAMSRGEIPPVRERSEQIPLSNWAELTPELLKVLHSRVAGRLIIHADELAQMWKVLNLPTDLFNSVMNVGRFTEEIEWLKFLALACSSLGVTIAKTLKIVCEVLSSDHDGGPPRIPFSTFQFLYTYIAEVDGEISSSHVSRMLNYIEQEVIGPDGLIKVNDFTQNPRVRLE
MFARIESGKIIAQKRKELGKTQKVLAEETNVNKSIISQIENGKFSGSLRVYEKYINGLGLELAVRPIKSKIPDFDNLHHLFPDE
MGSDKIHHHHHHMWFRNLLVYRLTQDLQLDADSLEKALGEKSARPCASQELTTYGFTAPFGKGPDAPLVHVSQDFFLISARKEERILPGSVVRDALKEKVDEIEAQQMRKVYKKERDQLKDEIVQTLLPRAFIRRSSTFAAIAPSLGLILVDSASAKKAEDLLSTLREALGSLPVRPLSVKVAPTATLTDWVKTQEAAGDFHVLDECELRDTHEDGGVVRCKRQDLTSEEIQLHLTAGKLVTQLSLAWSDKLSFVLDDKLAVKRLRFEDLLQEQAEKDGGEDALGQLDASFTLMMLTFAEFLPALFEALGGEEIPQGV
MGSDKIHHHHHHMSIQTSDPNETSDLKSLSLIAAHSHITGLGLDENLQPRPTSEGMVGQLQARRAAGVILKMVQNGTIAGRAVLVAGPPSTGKTALAMGVSQSLGKDVPFTAIAGSEIFSLELSKTEALTQAFRKSIGIKIKEETELIEGEVVEIQIDRSITGGHKQGKLTIKTTDMETIYELGNKMIDGLTKEKVLAGDVISIDKASGKITKLGRSFARSRDYDAMGADTRFVQCPEGELQKRKTVVHTVSLHEIDVINSRTQGFLALFTGDTGEIRSEVRDQINTKVAEWKEEGKAEIVPGVLFIDEVHMLDIECFSFINRALEDEFAPIVMMATNRGVSKTRGTNYKSPHGLPLDLLDRSIIITTKSYNEQEIKTILSIRAQEEEVELSSDALDLLTKTGVETSLRYSSNLISVAQQIAMKRKNNTVEVEDVKRAYLLFLDSARSVKYVQENESQYIDDQGNVQISIAKSADPDAMDTTE
MGNDKRVRKPEWLKISIGANERYTETKRIVESHCLHTICSSGRCPNMGECWGKGTATFMIAGDICTRSCKFCNTQTGRPLPLDPDEPTHVAESIALMKLSHAVITSVDRDDLPDLGAAHWAQTIREIKRLNPETTTEVLIPDFQGRKELVDQVIKACPEIISHNMETVKRISPQVRSAANYHTSLEVIRQIAESGITAKSGIMVGLGETPAEVEELMDDLISVGCKILTIGQYLQPTHKHFPVAAYITPEQFAVYKETGLKKGFEQVESAPLVRSSYHAEKHIRFNNK
MAHHHHHHMAKHSTFKNLVKLHGDMKKEELLVLFFHSCILDNNFIYKLNDEQKYEKSESHEKIKISNGYIKHMTDVGSGKFFLSRILIDPEWRSNSSSYNFLYQSVDTNDTYNLNLVKIENSLVVQIINTAQPSVVHSVTIDVGEYVNECTAEEGKTDNIEDRVMMEKLEGVFQTHILSHMKKGSSNNILGDNSSSKGKGPKGLIIESNANEHFRNVFQTNPDPYLLPNFNANHFDDKNPNIGRSLIPDLRNNVPILKPDGLLVGPDNKFFNPKNLRYDPIGPFGNEPNADNKPFEFQDNFPF
